Measurements published in paper PMC4256270, “In Vivo Occupancy of Mitochondrial Single-Stranded DNA Binding Protein Supports the Strand Displacement Mode of DNA Replication”.

Target: T1, mtSSB (mitochondrial single-stranded DNA-binding protein) (human, UniProt Q04837 17-148)
T1 sequence: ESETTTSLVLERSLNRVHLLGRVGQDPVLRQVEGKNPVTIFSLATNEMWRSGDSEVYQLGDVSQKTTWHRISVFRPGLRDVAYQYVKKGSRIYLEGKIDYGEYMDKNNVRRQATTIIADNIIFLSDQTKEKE
Assay: EMSA; 25 fmol DNA in 15 ul; no free template at tetramer:DNA 1:1 or higher; 10 mM Mg2+, 2 mM ATP; 20 mM Tris-HCl pH 8.0, 10 mM MgCl2, 100 ug/ml BSA, 1 mM DTT, 2 mM ATP, 10% glycerol, 15 min at room temperature; 10% native PAGE in 1x TBE
Conditions: protein: recombinant; chain copies: 4; label: 5'-32P; single strand, unstructured

B1: 6-dT (no predicted secondary structure; no stem) (ssDNA)
DNA: AACACCAGCAGAACTTTTTTAACAAGCAACACACAGAAGACA
  binding result: binds
